{"source": "patent US20240109965A1", "binders": {"B1": {"name": "A022600427 (protein)", "chain": "DVQLVESGGGVVQPGGSLRLSCVASGYVHKINFYGWYRQAPGKEREKVAHISIGDQTDYADSAKGRFTISRDESKNTVYLQMNSLRPEDTAAYYCRALSRIWPYDYWGQGTLVTVSSGGGGSEVQLVESGGGVVQPGGSLRLSCAASGFTFSSFAMTWVRRPPGKGLEWVATITNAGVTSYADSVKGRFTISRDNAKNTLYLQMNSLRPEDTALYICANARRTGPRAPTDIGSYRGQGTLVTVSSGGGGSGGGSEVQLVESGGGVVQPGGSLRLSCAASGSIFRSVFSSSTMEWYRQAPGKKRELVARIAPGEGTYYGALYADSVKGRFTISRDNAKNTVYLQMNSLRPEDTALYYCASGVAWGQGTLVTVSSGGGGSGGGSEVQLVESGGGVVQPGGSLRLSCAASGFTFRSFGMSWVRQAPGKGPEWVSSISGSGSDTLYADSVKGRFTISRDNSKNTLYLQMNSLRPEDTALYYCTIGGSLSRSSQGTLVTVSSA"}, "B2": {"name": "A022600462 (protein)", "chain": "B1 chain with D61E, W102Y, A176K"}}, "key": {"[1]": {"biological_target": "cynomolgus T cell receptor (TCRαβ) on primary cynomolgus T cells (cynomolgus)", "experiment": "cell-based or functional assay"}, "[2]": {"biological_target": "human T cell receptor (TCRαβ) on primary human T cells (human)", "sequence (P0DTU3 134-275, chain 1 of 2)": "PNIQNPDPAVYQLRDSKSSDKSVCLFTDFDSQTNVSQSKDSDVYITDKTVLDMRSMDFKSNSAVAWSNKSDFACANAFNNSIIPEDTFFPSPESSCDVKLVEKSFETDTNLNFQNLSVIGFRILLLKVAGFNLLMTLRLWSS", "sequence (P01850 other isoform, or with tags, fused parts or gaps, chain 2 of 2, further chain)": "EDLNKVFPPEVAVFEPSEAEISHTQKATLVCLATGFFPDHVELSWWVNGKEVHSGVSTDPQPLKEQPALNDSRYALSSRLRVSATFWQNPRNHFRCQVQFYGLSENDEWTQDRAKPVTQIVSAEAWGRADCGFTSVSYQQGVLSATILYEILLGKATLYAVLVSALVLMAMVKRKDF", "experiment": "cell-based or functional assay"}}, "note": "Where a chain is given by its changes, count along the chain named.", "data": [{"binder": "B1", "values": [{"measurement": "IC50 (M), cynomolgus T cell mediated HuH-7 cell killing, Cynomolgus Donor #1", "setting": "[1]", "value": "2.3e-08", "unit": "M"}, {"measurement": "IC50 (M), cynomolgus T cell mediated HuH-7 cell killing, Cynomolgus Donor #2", "setting": "[1]", "value": "2.5e-10", "unit": "M"}, {"measurement": "IC50 (M), human T cell mediated HuH-7 cell killing, Human Donor #1", "setting": "[2]", "value": "3e-10", "unit": "M"}, {"measurement": "IC50 (M), human T cell mediated HuH-7 cell killing, Human Donor #2", "setting": "[2]", "value": "1.1e-10", "unit": "M"}]}, {"binder": "B2", "values": [{"measurement": "IC50 (M), cynomolgus T cell mediated HuH-7 cell killing, Cynomolgus Donor #1", "setting": "[1]", "value": "3.9e-09", "unit": "M"}, {"measurement": "IC50 (M), cynomolgus T cell mediated HuH-7 cell killing, Cynomolgus Donor #2", "setting": "[1]", "value": "2.2e-10", "unit": "M"}, {"measurement": "IC50 (M), human T cell mediated HuH-7 cell killing, Human Donor #1", "setting": "[2]", "value": "2.8e-10", "unit": "M"}, {"measurement": "IC50 (M), human T cell mediated HuH-7 cell killing, Human Donor #2", "setting": "[2]", "value": "1e-10", "unit": "M"}]}]}
